Measured values: patent US10450355B2, “Lectins and uses thereof” (THE REGENTS OF THE UNIVERSITY OF MICHIGAN, priority 2014, dated 2019)

Tests used:
[1] = tested on: peripheral blood lymphocytes (PBL); test: Mitogenic activity by BrdU incorporation; format: cell-based; conditions: for stimulation index (mitogenic activity): PBL, three days with lectin, BrdU, less than ten considered non-mitogenic; for mitogenicity, in words: relative to WT BanLec
[2] = biological target: T1, BanLec, recombinant wild type (rBanLec, codon-optimized cDNA from gi71042661, C-terminal 6×His tag) (Musa acuminata, UniProt O22321); test: Isothermal titration calorimetry, binding constants of lectin for sugar; set-up: species or system banana; conditions: WT BanLec, ITC, 25° C., PBS, stoichiometry fixed at 1
T1 sequence (O22321 1-141): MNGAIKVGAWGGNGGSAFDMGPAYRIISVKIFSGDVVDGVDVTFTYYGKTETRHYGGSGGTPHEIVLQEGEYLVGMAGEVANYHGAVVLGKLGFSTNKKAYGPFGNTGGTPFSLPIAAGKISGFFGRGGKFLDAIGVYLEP

[3] = biological target: BanLec variant H84T (recombinant, 6×His tag) (Musa acuminata, UniProt O22321, H84T); test: biochemical; format: binding, banana
[4] = biological target: BanLec variant H84T (recombinant, 6×His tag); test: biochemical; format: binding, banana; conditions: for Fold Change (Ka, WT vs H84T): WT compared with H84T
[5] = biological target: T2, BanLec, natural (banana-derived) (Musa acuminata, UniProt O22321); test: Isothermal titration calorimetry, natural BanLec compared with rBanLec; format: binding; conditions: ITC
T2 sequence (O22321 1-141): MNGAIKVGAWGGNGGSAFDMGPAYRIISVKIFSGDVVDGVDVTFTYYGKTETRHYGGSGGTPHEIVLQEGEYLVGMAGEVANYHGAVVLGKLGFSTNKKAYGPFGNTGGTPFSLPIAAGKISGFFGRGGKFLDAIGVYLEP

[6] = tested on: the lectins (BanLec WT and H84T mutant); test: Isothermal titration calorimetry, general statement for the lectins; set-up: species or system banana; conditions: ITC, 25° C., PBS; relatively low binding constants
Description: Isothermal Titration Calorimetry
Binding constants of the lectins for methyl-α-D-mannopyranoside were determined by isothermal titration calorimetry using a MicroCal VP-ITC calorimeter (Micro-Cal, Northampton, Mass., USA) at 25° C. Data were analyzed using Origins Ver. 7 software supplied with the instrument. The lectin in PBS, generally at approx. 0.2 mM, was titrated with the ligand at 20 mM in the same buffer. The titration volumes were adjusted so that the titration proceeded to at least a 10-fold molar excess of ligand over lectin monomers. The relatively low binding constants (Ka<1000 M^−1) precluded obtaining full saturation or a definite sigmoidal titration curve from which a definitive stoichiometry can be calculated; thus, the stoichiometry was fixed at 1 for curve-fitting to determine Ka; values between about 0.5 and 2-3 had little effect on the Ka-value obtained.

HIV-1 pseudo-typed virus = format: cell-based; conditions: for anti-HIV activity, in words: relative to WT BanLec
[7] = tested on: formaldehyde-treated rabbit erythrocytes; test: Haemagglutination assay; format: cell-based; conditions: rabbit red blood cells
[8] = tested on: CD4+ peripheral blood mononuclear cells (PBMC); test: Flow cytometry of activation marker CD69; format: cell-based
[9] = tested on: PBMCs from healthy donors; test: Bio-Plex cytokine assay; format: cell-based, human; conditions: PBMC from multiple donors, 72 h
[10] = tested on: 1918 H1N1 pandemic influenza strain; format: cell-based, influenza A virus
[11] = tested on: H5N1 avian influenza strain; format: cell-based, influenza A virus
HIV-1 JR-CSF = format: in vivo, BLT humanized mice; conditions: 75 μg vaginally ten minutes before vaginal HIV-1 JR-CSF challenge; six weeks; p=0.0359 vs PBS
[12] = Aggregation in solution during NMR studies; format: physicochemical; conditions: NMR samples

## GNA: Galanthus nivalis agglutinin, non-mitogenic negative control [reference compound]
[1]
  stimulation index (mitogenic activity): less than ten

## CO[C@H]1O[C@H](CO)[C@@H](O)[C@H](O)[C@@H]1O [methyl-α-mannoside, Methyl α-d-mannopyranoside]
[2]; read-out: Ka (converted)
  Kd: 2610 nM
[3]
  Kd: 2830 nM
[4]
  KD-values, rBanLec vs H84T: similar
  Fold Change (Ka, WT vs H84T): 1.09
[5]
  affinity for the ligand, BanLec vs rBanLec: no difference
[6]
  Ka: < 1000 M⁻¹

## OC[C@H]1O[C@@H](O[C@H]2[C@H](O)[C@H](O)C(O)O[C@@H]2CO)[C@@H](O)[C@@H](O)[C@@H]1O (some centres unmarked) [mannobiose]
[2]
  Ka: 300 mM⁻¹
[3]; H84T BanLec, ITC, 25° C., PBS, stoichiometry fixed at 1
  Ka: 227 mM⁻¹
[4]
  KD-values, rBanLec vs H84T: similar
  Fold Change (Ka, WT vs H84T): 1.32

## Griffithsin [reference compound]
[1]
  stimulation index (mitogenic activity): less than ten

B1: D133G: BanLec mutant with a mutation in the first or second Greek Key sugar binding motif (protein)
chain: MNGAIKVGAWGGNGGSAFDMGPAYRIISVKIFSGDVVDGVDVTFTYYGKTETRHYGGSGGTPHEIVLQEGEYLVGMAGEVANYHGAVVLGKLGFSTNKKAYGPFGNTGGTPFSLPIAAGKISGFFGRGGKFLGAIGVYLEP
[1]
  mitogenicity, in words: abolished the mitogenic activity

B2: H84G: BanLec mutant, H84 replaced by glycine (protein)
chain: MNGAIKVGAWGGNGGSAFDMGPAYRIISVKIFSGDVVDGVDVTFTYYGKTETRHYGGSGGTPHEIVLQEGEYLVGMAGEVANYGGAVVLGKLGFSTNKKAYGPFGNTGGTPFSLPIAAGKISGFFGRGGKFLDAIGVYLEP
HIV-1 pseudo-typed virus
  anti-HIV activity, in words: preserving some antiviral HIV activity
[1]
  mitogenicity, in words: reasonably similar drop in mitogenicity as H84T

B3: H84D: BanLec mutant, H84 replaced by aspartic acid (protein)
chain: MNGAIKVGAWGGNGGSAFDMGPAYRIISVKIFSGDVVDGVDVTFTYYGKTETRHYGGSGGTPHEIVLQEGEYLVGMAGEVANYDGAVVLGKLGFSTNKKAYGPFGNTGGTPFSLPIAAGKISGFFGRGGKFLDAIGVYLEP
HIV-1 pseudo-typed virus
  anti-HIV activity, in words: marked loss
[1]
  mitogenicity, in words: marked loss

B4: H84E: BanLec mutant, H84 replaced by glutamic acid (protein)
chain: MNGAIKVGAWGGNGGSAFDMGPAYRIISVKIFSGDVVDGVDVTFTYYGKTETRHYGGSGGTPHEIVLQEGEYLVGMAGEVANYEGAVVLGKLGFSTNKKAYGPFGNTGGTPFSLPIAAGKISGFFGRGGKFLDAIGVYLEP
HIV-1 pseudo-typed virus
  anti-HIV activity, in words: marked loss
[1]
  mitogenicity, in words: marked loss

B5: H84Y: BanLec mutant, H84 replaced by tyrosine (protein)
chain: MNGAIKVGAWGGNGGSAFDMGPAYRIISVKIFSGDVVDGVDVTFTYYGKTETRHYGGSGGTPHEIVLQEGEYLVGMAGEVANYYGAVVLGKLGFSTNKKAYGPFGNTGGTPFSLPIAAGKISGFFGRGGKFLDAIGVYLEP
HIV-1 pseudo-typed virus
  anti-HIV activity, in words: minimal effects
[1]
  mitogenicity, in words: minimal effects

B6: H84W: BanLec mutant, H84 replaced by tryptophan (protein)
chain: MNGAIKVGAWGGNGGSAFDMGPAYRIISVKIFSGDVVDGVDVTFTYYGKTETRHYGGSGGTPHEIVLQEGEYLVGMAGEVANYWGAVVLGKLGFSTNKKAYGPFGNTGGTPFSLPIAAGKISGFFGRGGKFLDAIGVYLEP
HIV-1 pseudo-typed virus
  anti-HIV activity, in words: minimal effects
[1]
  mitogenicity, in words: minimal effects

B7: H84L: BanLec mutant, H84 replaced by leucine (protein)
chain: MNGAIKVGAWGGNGGSAFDMGPAYRIISVKIFSGDVVDGVDVTFTYYGKTETRHYGGSGGTPHEIVLQEGEYLVGMAGEVANYLGAVVLGKLGFSTNKKAYGPFGNTGGTPFSLPIAAGKISGFFGRGGKFLDAIGVYLEP
HIV-1 pseudo-typed virus
  anti-HIV activity, in words: marked loss
[1]
  mitogenicity, in words: marked loss

B8: H84F: BanLec mutant, H84 replaced by phenylalanine (protein)
chain: MNGAIKVGAWGGNGGSAFDMGPAYRIISVKIFSGDVVDGVDVTFTYYGKTETRHYGGSGGTPHEIVLQEGEYLVGMAGEVANYFGAVVLGKLGFSTNKKAYGPFGNTGGTPFSLPIAAGKISGFFGRGGKFLDAIGVYLEP
HIV-1 pseudo-typed virus
  anti-HIV activity, in words: minimal effects
[1]
  mitogenicity, in words: minimal effects

B9: H84K: BanLec mutant, H84 replaced by lysine (protein)
chain: MNGAIKVGAWGGNGGSAFDMGPAYRIISVKIFSGDVVDGVDVTFTYYGKTETRHYGGSGGTPHEIVLQEGEYLVGMAGEVANYKGAVVLGKLGFSTNKKAYGPFGNTGGTPFSLPIAAGKISGFFGRGGKFLDAIGVYLEP
HIV-1 pseudo-typed virus
  anti-HIV activity, in words: marked loss
[1]
  mitogenicity, in words: marked loss

B10: H84T: BanLec variant in which the histidine at position 84 is replaced by a threonine (protein)
chain: MNGAIKVGAWGGNGGSAFDMGPAYRIISVKIFSGDVVDGVDVTFTYYGKTETRHYGGSGGTPHEIVLQEGEYLVGMAGEVANYTGAVVLGKLGFSTNKKAYGPFGNTGGTPFSLPIAAGKISGFFGRGGKFLDAIGVYLEP
[7]
  minimal agglutination concentration: 487 µg/mL
HIV-1 pseudo-typed virus
  inhibition of HIV replication (IC50), in words: low nanomolar range
HIV-1 pseudo-typed virus; multiple different isolates of HIV
  anti-HIV inhibition relative to WT BanLec: equal to or within one log
[1]; concentrations up to 1 μM
  stimulation of proliferation of lymphocytes: did not stimulate the proliferation of lymphocytes
[8]
  cell surface expression of activation marker CD69: very little upregulation
[9]
  cytokine/chemokine production: markedly reduced production of cytokines
[10]
  inhibition of replication of 1918 H1N1 virus: very active and equally inhibited replication
[11]
  inhibition of replication of H5N1 avian influenza virus: very active and equally inhibited replication
HIV-1 JR-CSF
  mice with detectable levels of viral RNA in the plasma: none of the mice
[12]
  aggregation over time in solution: tendency to aggregate over time

B11: H84Q: BanLec mutant, H84 replaced by glutamine (protein)
chain: MNGAIKVGAWGGNGGSAFDMGPAYRIISVKIFSGDVVDGVDVTFTYYGKTETRHYGGSGGTPHEIVLQEGEYLVGMAGEVANYQGAVVLGKLGFSTNKKAYGPFGNTGGTPFSLPIAAGKISGFFGRGGKFLDAIGVYLEP
HIV-1 pseudo-typed virus
  anti-HIV activity, in words: marked loss
[1]
  mitogenicity, in words: marked loss
